These results are taken from patent publication US20170210812A1.

The target in test [1] is EGFRvIII expressed on cells (human) (UniProt P00533). The experiment in a line: cell-based or functional assay.
The target of test [2] is wild-type EGFR expressed on cells (human) (UniProt P00533). Briefly: cell-based or functional assay.

B1: 42G9/CD3 biFc (bispecific antibody, part only; not given: anti-CD3 arm and Fc, V domains shown, part only)
VH: QVTLKESGPVLLKPTETLTLTCTVSGFSLSNPRMGVSWIRQPPGKALEWFAHIFSTDEKSLKLSLRSRLTLSKDTSKSQVVLTMTNMAPVDSATYYCARDSSNYEGYFDFWGQGTLVTVSS
VL: EVVLTQSPATLSVSPGERATLSCRASQSVRSNLAWYQQKSGQAPRLLIYGSTIRATGVPARFSGSGSGTEFTLTISSLQSEDFAVYYCQQYSDWPFTFGPGTKVDIK
Molecule B1 gave a percentage of live target cells, LN229-EGFRvIII with activated T cells, 0.01 nM antibody in test [1] of 35%. In addition, the percentage of live target cells, parental LN229 with activated T cells, 0.01 nM antibody in test [2] is 100%.

B2: h62G7-EQ/L6/CD3 biFc (bispecific antibody, part only; not given: anti-CD3 arm and Fc, V domains shown, part only)
VH: QVQLVQSGAEVKKPGASVKVSCKASGYTFTDYTLHWVRQAPGQGLEWMGGIWPITGGTTYNQKFKGRVTMTRDTSTSTVYMELSSLRSEDTAVYYCARGEAQGSWGQGTLVTVSS
VL: DVVMTQSPLSLPVTLGQPASISCKSSQSLLYSNGKTYLNWFQQRPGQSPRRLIYQVSKLDSGVPDRFSGSGSGTDFTLKISRVEAEDVGVYYCGQDTHFPLTFGGGTKVEIK
In test [1], B2 gave a percentage of live target cells, DKMG with activated T cells, 1 nM antibody of 35% and a percentage of live target cells, LN18-EGFRvIII with activated T cells, 0.01 nM antibody of 20%. In addition, in test [2], the percentage of live target cells, parental LN18 with activated T cells, 0.01 nM antibody stood at 100%.
